Results taken from US12281155.

What was measured:
[1] = target: T1, recombinant SARS-CoV-2 Spike RBD domain, Wuhan (SARS-CoV-2); assay: ELISA on coated RBD; details: remark: other sources report otherwise
[2] = target: T1, recombinant SARS-CoV-2 Spike RBD …; assay: competition ELISA, blocking of RBD binding to ACE2 ectodomain; details: remark: other sources report otherwise

B1: SPK002 antibody (parental version Cv2.3194 described in WO 2022/228827) (antibody, V domains shown)
VH: EVQLVESGGGLIQPGGSLRLSCAASGITVTSNYMSWVRQAPGKGLEWVSVIYPGGSTFYADSVKGRFTISRDNSKNTLYLQMNSLRAEDTAVYYCARDLVVYGMDVWGQGTTVTVS
VL: EIVLTQSPGTLSLSPGERATLSCRASQSVSSSYLAWYQQKPGQAPRLLIYGASSRATGIPGRFSGSGSGTDFTLTISRLEPEDFAIYYCQQGVTFGGGTKVEIK
For B1, which Binding AUC [1] is on record?
Its Binding AUC is 34.

And the Blocking % [2]?
The Blocking % was 88%.
